# According to paper PMC10786891, “Massively parallel profiling of RNA-targeting CRISPR-Cas13d”:
# Residue numbers refer to the chain shown, from its start. Names may count otherwise.
# T1: EsCas13d, nuclease-dead (Eubacterium siraeum, UniProt B0MS50, R295A;H300A;R849A;H854A)
# T1 sequence: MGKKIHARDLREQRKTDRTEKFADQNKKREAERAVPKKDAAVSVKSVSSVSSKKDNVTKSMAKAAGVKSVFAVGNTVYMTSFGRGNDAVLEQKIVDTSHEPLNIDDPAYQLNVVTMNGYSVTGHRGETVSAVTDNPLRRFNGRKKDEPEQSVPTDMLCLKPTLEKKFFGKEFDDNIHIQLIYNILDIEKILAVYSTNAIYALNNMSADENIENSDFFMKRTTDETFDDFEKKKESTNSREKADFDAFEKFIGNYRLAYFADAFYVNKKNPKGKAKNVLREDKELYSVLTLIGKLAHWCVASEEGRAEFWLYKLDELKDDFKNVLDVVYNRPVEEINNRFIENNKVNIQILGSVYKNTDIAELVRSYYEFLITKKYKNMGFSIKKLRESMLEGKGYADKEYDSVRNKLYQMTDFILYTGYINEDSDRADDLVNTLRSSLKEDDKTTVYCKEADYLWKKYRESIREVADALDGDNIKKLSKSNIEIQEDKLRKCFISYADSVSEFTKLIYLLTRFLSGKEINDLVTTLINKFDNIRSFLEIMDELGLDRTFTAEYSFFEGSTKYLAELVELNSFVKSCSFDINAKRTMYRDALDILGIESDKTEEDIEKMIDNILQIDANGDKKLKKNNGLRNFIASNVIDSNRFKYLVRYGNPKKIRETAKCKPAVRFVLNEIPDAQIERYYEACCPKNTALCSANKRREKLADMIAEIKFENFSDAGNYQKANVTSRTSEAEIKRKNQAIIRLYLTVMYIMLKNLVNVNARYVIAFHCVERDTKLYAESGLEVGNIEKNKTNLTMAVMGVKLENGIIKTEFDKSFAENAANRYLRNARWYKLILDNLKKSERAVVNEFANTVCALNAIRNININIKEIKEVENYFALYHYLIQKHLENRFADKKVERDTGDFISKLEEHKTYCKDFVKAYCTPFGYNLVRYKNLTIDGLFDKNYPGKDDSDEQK
# B1: target 1 insG 3' of 11,insA 3' of 6 (mixed)
# RNA 1: CACCCGUGCAAAAAUGCAGGGGUCUAAAACUGAGCGGAUAACCUCUCUAUGG
# RNA 2: GGGAAUGGAUCCACAUCUACGAAUUCGUACCAUAGAGAGGUGUAUCCAGCUCACCGAGAUCGGAAGAGCACACGU
# B2: target 1 U10A,C21A (mixed)
# RNA 1: B1 RNA 1
# RNA 2: GGGAAUGGAUCCACAUCUACGAAUUCGUACAAUAGAGAGGUAAUCCGCUCACCGAGAUCGGAAGAGCACACGU
# B3: target 1 insG 3' of 18,insG 3' of 9 (mixed)
# RNA 1: B1 RNA 1
# RNA 2: B1 RNA 2 with A36G, G37A, A38G, G39A, U41G, G42U, U45G, C46U, A48C
# B4: target 1 U10C,G12U (mixed)
# RNA 1: B1 RNA 1
# RNA 2: B2 RNA 2 with A31C, G40U, A42C
# B5: target 1 insG 3' of 21,insU 3' of 18 (mixed)
# RNA 1: B1 RNA 1
# RNA 2: GGGAAUGGAUCCACAUCUACGAAUUCGUACCGAUAUGAGAGGUUAUCCGCUCACCGAGAUCGGAAGAGCACACGU
# B6: target 1 insC 3' of 22,insA 3' of 19 (mixed)
# RNA 1: B1 RNA 1
# RNA 2: B5 RNA 2 with G32C, U36A
# B7: target 1 G12A,A20U (mixed)
# RNA 1: B1 RNA 1
# RNA 2: B2 RNA 2 with A31C, A32U, G40A, A42U
# B8: target 1 G15A,A16C (mixed)
# RNA 1: B1 RNA 1
# RNA 2: B2 RNA 2 with A31C, A36C, G37A, A42U
# B9: target 1 C2A,G5C (mixed)
# RNA 1: B1 RNA 1
# RNA 2: B2 RNA 2 with A31C, A42U, G47C, C50A
# B10: target 1 C7G,G12C (mixed)
# RNA 1: B1 RNA 1
# RNA 2: B2 RNA 2 with A31C, G40C, A42U, C45G
# B11: target 1 insU 3' of 14,insG 3' of 11 (mixed)
# RNA 1: B1 RNA 1
# RNA 2: B1 RNA 2 with G39U, U41G, G42U, U43G, A44U, U45A, C46U, A48C
# B12: target 1 insU 3' of 22,insC 3' of 5 (mixed)
# RNA 1: B1 RNA 1
# RNA 2: GGGAAUGGAUCCACAUCUACGAAUUCGUACUCAUAGAGAGGUUAUCCGCCUCACCGAGAUCGGAAGAGCACACGU
# B13: target 1 insG 3' of 11,insG 3' of 2 (mixed)
# RNA 1: B1 RNA 1
# RNA 2: B1 RNA 2 with A48G, G49C, C50U, U51C, C52G
# B14: target 1 U8A,G17U (mixed)
# RNA 1: B1 RNA 1
# RNA 2: B2 RNA 2 with A31C, G35U, A42U, U44A
# B15: target 1 insU 3' of 21,insG 3' of 10 (mixed)
# RNA 1: B1 RNA 1
# RNA 2: B12 RNA 2 with U31C, C32U, A44G, U45A, C46U, G48C, C49G
# B16: target 1 insC 3' of 19,insC 3' of 9 (mixed)
# RNA 1: B1 RNA 1
# RNA 2: B12 RNA 2 with U31C, C32A, A33U, U34C, U45C, C46U, G48C, C49G
# Biological target: T1, EsCas13d, nuclease-dead
# Test: crRNA (strand 1, pre-loaded); Mg2+; 40 mM Tris-HCl pH 7.5, 150 mM NaCl, 6 mM MgCl2, 1 mM DTT, 0.1% Tween-20, 0.2 mg/ml BSA; 25 C; 10 min per concentration, then washed
# Conditions: tags: His6-TwinStrep-SUMO cleaved; N-terminal SNAP kept (SNAP-Surface 488); label: 3' end held by stalled T7 RNA polymerase
row,Binder,Kd [nM]
1,B1,94 ± 29
2,B2,33 ± 5
3,B3,49 ± 8
4,B4,24 ± 4
5,B5,77 ± 22
6,B6,30 ± 9
7,B7,15.7 ± 0.9
8,B8,30.5 ± 2.7
9,B9,6.52 ± 0.32
10,B10,23.6 ± 1.4
11,B11,80 ± 40
12,B12,100 ± 50
13,B13,57 ± 8
14,B14,61 ± 8
15,B15,82 ± 23
16,B16,56 ± 11
